In US20060234285A1 (Human Genome Sciences, published 2006):

Legend:
Assay in all cases: flow cytometry on transiently transfected cells
[1] = biological target: T1, DR5, on transiently transfected cells (UniProt O14763 56-440, limits assumed)
T1 construct: whole, on cells
Method: (§1) One million cells, in 0.1 ml of FACS buffer (PBS, 0.1% BSA, 0.1% NaN₃), were incubated with 0.1-1 microgram of protein or antibody at RT for 15 min. The cells were washed with 3 ml of FACS buffer, reacted with biotinylated primary antibody, and stained with PE-conjugated secondary antibody at RT for 15 min. Cells were then washed again, resuspended in 0.5 microgram/ml of propidium iodide, and live cells were gated and analyzed on a FACScan using the CellQuest software (BD Biosciences).

[2] = biological target: T2, DcR2, on transiently transfected cells (UniProt Q9UBN6 56-386, limits assumed)
T2 construct: whole, on cells
T2 sequence (looked up): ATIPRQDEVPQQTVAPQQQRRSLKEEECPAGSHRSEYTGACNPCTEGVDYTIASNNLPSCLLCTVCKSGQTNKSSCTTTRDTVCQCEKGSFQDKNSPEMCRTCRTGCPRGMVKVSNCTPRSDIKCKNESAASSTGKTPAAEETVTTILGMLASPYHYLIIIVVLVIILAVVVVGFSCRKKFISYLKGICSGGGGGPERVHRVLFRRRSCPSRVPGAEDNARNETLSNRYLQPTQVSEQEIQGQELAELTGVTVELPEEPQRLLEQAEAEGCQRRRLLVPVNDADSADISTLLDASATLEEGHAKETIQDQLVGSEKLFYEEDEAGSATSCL
Method: as §1

[3] = biological target: T3, LTβR, on transiently transfected cells (UniProt P36941 31-435)
T3 construct: whole, on cells
T3 sequence (P36941 31-435): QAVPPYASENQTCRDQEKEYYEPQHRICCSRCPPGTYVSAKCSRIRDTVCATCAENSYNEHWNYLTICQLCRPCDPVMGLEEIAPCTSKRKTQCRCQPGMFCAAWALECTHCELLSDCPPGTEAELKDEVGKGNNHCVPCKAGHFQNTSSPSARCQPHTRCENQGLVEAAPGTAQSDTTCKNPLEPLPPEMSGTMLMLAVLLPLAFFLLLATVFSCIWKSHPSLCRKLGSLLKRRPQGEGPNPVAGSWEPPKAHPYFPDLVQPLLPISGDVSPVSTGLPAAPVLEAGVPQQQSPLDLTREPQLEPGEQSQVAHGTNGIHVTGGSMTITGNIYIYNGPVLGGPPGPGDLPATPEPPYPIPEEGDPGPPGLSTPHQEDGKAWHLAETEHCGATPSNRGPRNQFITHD
Method: as §1

[4] = biological target: T4, DR4, on transiently transfected cells (UniProt O00220 24-468, limits assumed)
T4 construct: whole, on cells
T4 sequence (looked up): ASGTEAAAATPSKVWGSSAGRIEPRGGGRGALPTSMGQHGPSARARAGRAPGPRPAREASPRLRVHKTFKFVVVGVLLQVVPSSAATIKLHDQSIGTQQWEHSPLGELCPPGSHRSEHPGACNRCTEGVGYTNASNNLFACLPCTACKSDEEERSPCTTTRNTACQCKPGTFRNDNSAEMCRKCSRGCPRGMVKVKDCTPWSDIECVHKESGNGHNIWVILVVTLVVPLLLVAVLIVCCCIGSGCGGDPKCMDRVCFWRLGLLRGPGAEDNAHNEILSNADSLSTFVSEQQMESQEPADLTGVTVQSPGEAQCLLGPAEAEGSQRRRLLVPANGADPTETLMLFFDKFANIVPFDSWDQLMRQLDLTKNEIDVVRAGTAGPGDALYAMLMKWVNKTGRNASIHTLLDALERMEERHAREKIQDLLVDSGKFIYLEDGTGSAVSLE
Method: as §1

[5] = biological target: T5, CD30, on transiently transfected cells (UniProt P28908 19-595, limits assumed)
T5 construct: whole, on cells
T5 sequence (looked up): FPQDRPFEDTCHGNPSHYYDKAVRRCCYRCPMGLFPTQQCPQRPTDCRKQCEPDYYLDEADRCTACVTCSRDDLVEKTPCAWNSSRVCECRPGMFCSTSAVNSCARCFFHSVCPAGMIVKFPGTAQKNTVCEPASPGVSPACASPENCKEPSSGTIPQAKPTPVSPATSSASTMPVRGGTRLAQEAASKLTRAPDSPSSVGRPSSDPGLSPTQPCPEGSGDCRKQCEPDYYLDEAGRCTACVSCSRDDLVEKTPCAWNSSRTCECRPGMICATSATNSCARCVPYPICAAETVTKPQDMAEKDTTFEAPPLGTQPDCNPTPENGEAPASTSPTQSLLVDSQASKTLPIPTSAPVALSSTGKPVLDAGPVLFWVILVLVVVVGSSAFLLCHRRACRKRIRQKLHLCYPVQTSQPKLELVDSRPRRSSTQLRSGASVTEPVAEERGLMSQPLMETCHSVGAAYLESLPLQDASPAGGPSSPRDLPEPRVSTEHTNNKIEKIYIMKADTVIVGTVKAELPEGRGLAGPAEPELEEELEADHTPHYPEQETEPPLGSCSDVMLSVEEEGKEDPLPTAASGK
Method: as §1

[6] = biological target: T6, DcR1, on transiently transfected cells (UniProt O14798 26-236, limits assumed)
T6 construct: whole, on cells
T6 sequence (looked up): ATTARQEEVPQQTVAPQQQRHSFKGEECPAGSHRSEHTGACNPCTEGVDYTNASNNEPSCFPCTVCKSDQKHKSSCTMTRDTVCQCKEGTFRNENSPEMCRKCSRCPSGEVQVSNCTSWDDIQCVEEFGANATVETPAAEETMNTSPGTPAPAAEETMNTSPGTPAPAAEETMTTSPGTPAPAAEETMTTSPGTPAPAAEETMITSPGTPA
Method: as §1

[7] = biological target: T7, BCMA, on transiently transfected cells (UniProt Q02223 1-184, limits assumed)
T7 construct: whole, on cells
T7 sequence (looked up): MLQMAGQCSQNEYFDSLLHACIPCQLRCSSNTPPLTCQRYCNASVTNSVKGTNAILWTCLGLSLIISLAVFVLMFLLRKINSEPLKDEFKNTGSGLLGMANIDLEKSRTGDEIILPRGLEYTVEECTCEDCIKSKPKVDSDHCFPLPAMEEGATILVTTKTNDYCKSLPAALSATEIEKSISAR
Method: as §1

[8] = biological target: T8, HveA, on transiently transfected cells (UniProt Q92956 39-283, limits assumed)
T8 construct: whole, on cells
T8 sequence (looked up): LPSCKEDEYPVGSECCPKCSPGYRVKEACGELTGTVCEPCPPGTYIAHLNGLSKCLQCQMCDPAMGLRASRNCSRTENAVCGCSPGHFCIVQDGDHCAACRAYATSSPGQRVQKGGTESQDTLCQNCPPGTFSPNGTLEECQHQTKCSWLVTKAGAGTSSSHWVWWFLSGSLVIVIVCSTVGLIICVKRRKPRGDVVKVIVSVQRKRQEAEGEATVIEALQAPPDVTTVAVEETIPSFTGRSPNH
Method: as §1

Measured: binding result

B1: FLAG-tagged soluble form of TNF-gamma-beta (aa 72-251) (ligand, human, UniProt O95150 72-251, looked up, not shown: small tags and cut ends)
chain: LKGQEFAPSHQQVYAPLRADGDKPRAHLTVVRQTPTQHFKNQFPALHWEHELGLAFTKNRMNYTNKFLLIPESGDYFIYSQVTFRGMTSECSEIRQAGRPNKPDSITVVITKVTDSYPEPTQLLMGTKSVCEVGSNWFQPIYLGAMFSLQEGDKLMVNVSDISLVDYTKEDKTFFGAFLL
notes: also called FLAG-TL1β; FLAG-TNF-gamma-beta
no binding: [1] | [2] | [3] | [4] | [5] | [6] | [7] | [8]
